Data reported in article PMC8799735, “Depletion of mitochondrial methionine adenosyltransferase α1 triggers mitochondrial dysfunction in alcohol-associated liver disease” (Nature Communications, 2022).
Values belong to the binder of their own block, whether it stands above or below them.

Experiments:
Conditions in all cases: partners not purified
[1] = molecular target: T1, Peptidyl-prolyl cis/trans isomerase NIMA-interacting 1 (PIN1), endogenous mouse (mouse (endogenous in mouse hepatocytes, …, UniProt Q9QUR7 1-165)); assay: co-IP; AML-12 cell lysates, control or ethanol (100 mM, 48 h); IP with anti-PIN1 or anti-MATα1 antibodies, western blot, densitometry
T1 construct: source: endogenous, mouse hepatocyte lysate, mouse liver whole lysates and cytosolic fractions, AML-12 lysate
T1 sequence (Q9QUR7 whole entry): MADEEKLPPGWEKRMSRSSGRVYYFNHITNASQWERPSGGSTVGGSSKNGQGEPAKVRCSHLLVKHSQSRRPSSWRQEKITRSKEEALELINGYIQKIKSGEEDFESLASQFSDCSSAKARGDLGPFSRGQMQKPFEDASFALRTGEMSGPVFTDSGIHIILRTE

[2] = molecular target: T1, Peptidyl-prolyl cis/trans isomerase …; assay: co-IP; whole liver lysates of pair-fed and ethanol-fed mice (NIAAA model); IP with anti-PIN1 or anti-MATα1 antibodies, western blot against MATα1 or PIN1, densitometry
[3] = molecular target: T2, Peptidyl-prolyl cis/trans isomerase NIMA-interacting 1 (PIN1), endogenous human (human (endogenous in human hepatocytes, …, UniProt Q13526 1-163)); assay: co-IP; human normal and end-stage cirrhotic ALD liver lysates; IP with anti-PIN1 or anti-MATα1 antibodies, western blot against MATα1 or PIN1, densitometry
T2 construct: source: endogenous, human hepatocyte lysate, human liver lysates and HepG2 lysate
T2 sequence (Q13526 whole entry): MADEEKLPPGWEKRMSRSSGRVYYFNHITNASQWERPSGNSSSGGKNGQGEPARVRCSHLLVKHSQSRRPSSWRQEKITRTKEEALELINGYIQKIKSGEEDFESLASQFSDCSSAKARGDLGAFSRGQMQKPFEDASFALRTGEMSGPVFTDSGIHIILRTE

fold of co-precipitated signal, ethanol-treated against control AML-12 cells [1]: 3.5 fold
fold of co-precipitated signal, ethanol-fed against pair-fed mouse livers [2]: 2 fold
B1: Methionine adenosyltransferase α1 (MATα1), endogenous mouse (natural protein)
chain: not shown
notes: Methionine adenosyltransferase α1 (MATα1), mouse, endogenous; source: endogenous, mouse hepatocyte lysate, mouse liver whole lysates and cytosolic fractions, AML-12 lysate

fold of co-precipitated signal, alcoholic cirrhotic livers against normal human livers [3]: 3.3 fold
B2: Methionine adenosyltransferase α1 (MATα1), endogenous human (natural protein)
chain: not shown
notes: Methionine adenosyltransferase α1 (MATα1), human, endogenous in hepatocytes and liver; source: endogenous, human hepatocyte lysate and human liver lysates (normal, ALD)
